Consider 23 sequences from PMC4434323.

The target in data set [1] is T1, lin-31 (K10G6.1) (Caenorhabditis elegans) (UniProt P34683).
T1 sequence: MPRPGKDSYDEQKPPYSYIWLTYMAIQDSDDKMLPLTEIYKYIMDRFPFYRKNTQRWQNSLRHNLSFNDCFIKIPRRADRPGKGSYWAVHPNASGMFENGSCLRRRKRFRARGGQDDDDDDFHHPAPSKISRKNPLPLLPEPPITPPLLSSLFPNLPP

Data set [2] concerns the target T2, nhr-7 (F54D1.4) (Caenorhabditis elegans) (UniProt Q20765).
T2 sequence: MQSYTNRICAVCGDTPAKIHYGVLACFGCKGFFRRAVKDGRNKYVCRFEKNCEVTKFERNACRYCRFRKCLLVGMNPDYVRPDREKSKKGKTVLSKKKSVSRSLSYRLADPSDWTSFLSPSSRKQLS

Data set [3] deals with T3, nhr-3 (H01A20.1) (Caenorhabditis elegans) (UniProt Q9XTJ4).
T3 sequence: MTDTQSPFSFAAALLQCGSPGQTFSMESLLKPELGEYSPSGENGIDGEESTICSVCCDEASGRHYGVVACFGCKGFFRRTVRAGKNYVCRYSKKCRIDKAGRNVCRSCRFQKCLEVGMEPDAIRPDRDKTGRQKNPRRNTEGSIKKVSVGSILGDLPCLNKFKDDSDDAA

The target of data set [4] is T4, C46E10.8 (C46E10.8) (Caenorhabditis elegans) (UniProt O44719).
T4 sequence: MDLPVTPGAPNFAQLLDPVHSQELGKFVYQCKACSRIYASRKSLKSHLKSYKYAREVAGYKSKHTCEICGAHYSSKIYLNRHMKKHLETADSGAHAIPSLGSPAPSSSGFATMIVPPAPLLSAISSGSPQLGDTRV

The target of data set [5] is T5, fkh-9 (K03C7.2) (Caenorhabditis elegans) (UniProt Q21187).
T5 sequence: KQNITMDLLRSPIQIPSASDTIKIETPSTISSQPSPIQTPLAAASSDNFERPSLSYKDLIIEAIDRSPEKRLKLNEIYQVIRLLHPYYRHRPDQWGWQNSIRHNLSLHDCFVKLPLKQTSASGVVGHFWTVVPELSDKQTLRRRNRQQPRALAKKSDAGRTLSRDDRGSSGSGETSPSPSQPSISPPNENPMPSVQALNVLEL

For data set [6], the target named is T6, let-381 (F26B1.7) (Caenorhabditis elegans) (UniProt P91278).
T6 sequence: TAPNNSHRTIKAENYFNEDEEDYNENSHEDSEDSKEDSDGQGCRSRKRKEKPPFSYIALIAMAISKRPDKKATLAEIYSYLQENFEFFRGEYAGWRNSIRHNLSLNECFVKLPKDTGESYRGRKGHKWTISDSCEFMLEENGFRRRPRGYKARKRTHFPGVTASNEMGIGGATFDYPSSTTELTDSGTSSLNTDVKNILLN

Data set [7] deals with T7, pop-1 (W10C8.2) (Caenorhabditis elegans) (UniProt Q10666).
T7 sequence: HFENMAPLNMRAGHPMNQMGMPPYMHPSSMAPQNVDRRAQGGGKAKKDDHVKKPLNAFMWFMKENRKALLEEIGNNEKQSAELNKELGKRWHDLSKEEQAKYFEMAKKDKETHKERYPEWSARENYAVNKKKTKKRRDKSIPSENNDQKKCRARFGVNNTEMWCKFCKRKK

Data set [8] addresses T8, F10B5.3 (F10B5.3) (Caenorhabditis elegans) (UniProt Q09534).
T8 sequence: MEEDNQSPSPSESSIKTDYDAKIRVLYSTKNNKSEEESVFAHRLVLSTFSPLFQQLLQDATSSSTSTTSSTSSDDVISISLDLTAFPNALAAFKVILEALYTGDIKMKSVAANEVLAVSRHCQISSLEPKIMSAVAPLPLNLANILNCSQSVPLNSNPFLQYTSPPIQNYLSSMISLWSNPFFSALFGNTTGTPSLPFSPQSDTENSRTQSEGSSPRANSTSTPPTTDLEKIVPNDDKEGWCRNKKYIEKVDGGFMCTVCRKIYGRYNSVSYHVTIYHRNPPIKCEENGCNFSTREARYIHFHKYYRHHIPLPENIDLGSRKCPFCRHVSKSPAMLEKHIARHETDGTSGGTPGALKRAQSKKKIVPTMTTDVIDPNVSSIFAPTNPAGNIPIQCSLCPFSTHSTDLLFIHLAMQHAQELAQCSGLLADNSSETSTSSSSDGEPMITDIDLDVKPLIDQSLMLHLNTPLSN

For data set [9], the target named is T9, hsf-1 (Y53C10A.12) (Caenorhabditis elegans) (UniProt G5EFT5).
T9 sequence: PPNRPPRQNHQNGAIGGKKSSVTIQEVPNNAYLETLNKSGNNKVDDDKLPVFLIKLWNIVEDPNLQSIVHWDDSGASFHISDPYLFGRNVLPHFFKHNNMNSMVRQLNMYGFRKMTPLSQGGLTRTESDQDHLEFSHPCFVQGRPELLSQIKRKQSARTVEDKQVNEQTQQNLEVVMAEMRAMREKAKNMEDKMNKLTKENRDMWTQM

Data set [10] deals with T10, dmd-6 (F13G11.1) (Caenorhabditis elegans) (UniProt O62159).
T10 sequence: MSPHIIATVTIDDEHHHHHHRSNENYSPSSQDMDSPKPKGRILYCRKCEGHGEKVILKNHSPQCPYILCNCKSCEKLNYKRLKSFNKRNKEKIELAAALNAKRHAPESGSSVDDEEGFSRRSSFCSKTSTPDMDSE

For data set [11], the target named is T11, nhr-46 (C45E5.6) (Caenorhabditis elegans) (UniProt Q95QR2).
T11 sequence: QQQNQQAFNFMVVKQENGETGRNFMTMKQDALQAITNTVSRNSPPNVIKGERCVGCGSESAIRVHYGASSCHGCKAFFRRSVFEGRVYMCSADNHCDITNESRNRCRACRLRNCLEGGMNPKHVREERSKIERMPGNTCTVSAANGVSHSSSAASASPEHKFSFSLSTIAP

In data set [12] the target is T12, nhr-1 (R09G11.2) (Caenorhabditis elegans) (UniProt Q21878).
T12 sequence: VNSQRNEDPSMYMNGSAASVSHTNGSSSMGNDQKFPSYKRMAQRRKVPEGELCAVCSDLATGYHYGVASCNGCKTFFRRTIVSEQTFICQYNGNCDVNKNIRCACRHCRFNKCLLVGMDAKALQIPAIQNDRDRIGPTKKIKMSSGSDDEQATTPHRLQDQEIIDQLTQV

Data set [13] concerns the target nhr-34 (F58G6.5) (Caenorhabditis elegans) (UniProt Q21006).
For data set [14], the target named is T13, nhr-154 (C13C4.2) (Caenorhabditis elegans) (UniProt O01931).
T13 sequence: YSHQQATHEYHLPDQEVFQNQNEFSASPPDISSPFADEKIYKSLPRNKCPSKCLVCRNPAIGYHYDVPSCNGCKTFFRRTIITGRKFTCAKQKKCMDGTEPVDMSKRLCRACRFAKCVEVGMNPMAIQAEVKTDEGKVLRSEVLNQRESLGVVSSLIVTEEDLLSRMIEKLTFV

Data set [15] has as its target T14, efl-2 (Y48C3A.17) (Caenorhabditis elegans) (UniProt A5HWA8).
T14 sequence: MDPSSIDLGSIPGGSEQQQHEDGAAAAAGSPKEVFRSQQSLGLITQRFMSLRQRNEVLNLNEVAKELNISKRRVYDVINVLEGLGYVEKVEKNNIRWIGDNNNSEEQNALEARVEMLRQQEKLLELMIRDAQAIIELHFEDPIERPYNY

Data set [16] has as its target T15, D1005.3 (D1005.3) (Caenorhabditis elegans) (UniProt Q18909).
T15 sequence: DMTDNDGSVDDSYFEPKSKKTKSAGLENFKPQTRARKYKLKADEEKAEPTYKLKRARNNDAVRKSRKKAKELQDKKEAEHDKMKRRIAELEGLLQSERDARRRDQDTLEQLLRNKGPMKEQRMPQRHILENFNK

The target in data set [17] is T16, ztf-27 (T09F3.1) (Caenorhabditis elegans) (UniProt G5EDA0).
T16 sequence: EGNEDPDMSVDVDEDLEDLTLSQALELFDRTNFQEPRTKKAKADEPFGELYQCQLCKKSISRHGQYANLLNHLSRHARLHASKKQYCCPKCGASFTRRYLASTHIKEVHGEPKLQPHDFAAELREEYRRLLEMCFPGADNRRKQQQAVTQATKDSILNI

Data set [18] addresses T17, T27F2.4 (T27F2.4) (Caenorhabditis elegans) (UniProt Q22835).
T17 sequence: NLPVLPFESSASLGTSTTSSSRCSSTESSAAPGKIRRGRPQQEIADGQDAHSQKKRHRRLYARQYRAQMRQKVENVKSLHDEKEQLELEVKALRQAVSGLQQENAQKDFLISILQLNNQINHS

Sequence of nhr-34 (F58G6.5) (Caenorhabditis elegans) (Q21006 99-268): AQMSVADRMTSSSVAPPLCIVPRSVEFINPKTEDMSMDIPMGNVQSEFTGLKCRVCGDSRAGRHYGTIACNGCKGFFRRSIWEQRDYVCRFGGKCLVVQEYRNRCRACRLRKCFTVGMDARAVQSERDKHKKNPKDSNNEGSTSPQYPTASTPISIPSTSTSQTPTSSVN

In data set [1], “TATTTACA (double strand) [8-mer TATTTACA]” returned a binding signal (PBM E-score (-0.5 to 0.5)) of 0.474. With “AAAGACCA (double strand) [8-mer AAAGACCA]”, the binding signal (PBM E-score (-0.5 to 0.5)) in [2] was 0.472; in [3] it was 0.459. For “ATAAATTA (double strand) [8-mer ATAAATTA]”, the binding signal (PBM E-score (-0.5 to 0.5)) in data set [4] turned out to be 0.451. On to “TAAATTTA (double strand) [8-mer TAAATTTA]”, for which, in data set [4], the binding signal (PBM E-score (-0.5 to 0.5)) came out at 0.459.

As to “TGTAAACA (double strand) [8-mer TGTAAACA]”, the binding signal (PBM E-score (-0.5 to 0.5)) was found to be 0.476 in data set [1], 0.485 in [5] and 0.461 in [6]. “CATCAAAG (double strand) [8-mer CATCAAAG]”: the binding signal (PBM E-score (-0.5 to 0.5)) in data set [7] was determined as 0.463.

For the sequence “TTCTAGAA (double strand) [8-mer TTCTAGAA]”, the binding signal (PBM E-score (-0.5 to 0.5)) in [8] was found to be 0.477; in data set [9] it was 0.498.

Regarding “TAAACAAA (double strand) [8-mer TAAACAAA]”, the binding signal (PBM E-score (-0.5 to 0.5)) worked out at 0.473 in [1] and 0.493 in data set [6]. “AATTTATG (double strand) [8-mer AATTTATG]”: the binding signal (PBM E-score (-0.5 to 0.5)) in data set [4] came to 0.465.

As to “ATCAAAGA (double strand) [8-mer ATCAAAGA]”, in data set [7], the binding signal (PBM E-score (-0.5 to 0.5)) turned out to be 0.456. As to “AATTTATA (double strand) [8-mer AATTTATA]”, the binding signal (PBM E-score (-0.5 to 0.5)) in data set [10] is 0.471; in data set [4], 0.457.

Turning to “AAAGATCA (double strand) [8-mer AAAGATCA]”, the binding signal (PBM E-score (-0.5 to 0.5)) in data set [11] was 0.49; in [12] it was 0.472; in data set [2], 0.476; in data set [13] it was 0.485; in data set [3] it was 0.488.

Turning to “TTCCAGAA (double strand) [8-mer TTCCAGAA]”, the binding signal (PBM E-score (-0.5 to 0.5)) in [8] came out at 0.491; in data set [9], 0.489.

Consider “CTTTGATC (double strand) [8-mer CTTTGATC]”, for which the binding signal (PBM E-score (-0.5 to 0.5)) in data set [7] is 0.451. For “GGCGCCAA (double strand) [8-mer GGCGCCAA]”, the binding signal (PBM E-score (-0.5 to 0.5)) in data set [14] was determined as 0.46; in [15], 0.488.

“TTGCGAAA (double strand) [8-mer TTGCGAAA]” displayed a binding signal (PBM E-score (-0.5 to 0.5)) in data set [16] of 0.466. Consider “GTAAACAA (double strand) [8-mer GTAAACAA]”, for which the binding signal (PBM E-score (-0.5 to 0.5)) stood at 0.47 in [1], 0.492 in data set [5] and 0.486 in [6].

For “AAGATCAA (double strand) [8-mer AAGATCAA]”, the binding signal (PBM E-score (-0.5 to 0.5)) in data set [11] came to 0.496; in data set [2], 0.455; in data set [13], 0.494; in data set [3], 0.486. In turn, “GCGCCAAA (double strand) [8-mer GCGCCAAA]” gave a binding signal (PBM E-score (-0.5 to 0.5)) in data set [14] of 0.453.

With “AGGCGCCA (double strand) [8-mer AGGCGCCA]”, the binding signal (PBM E-score (-0.5 to 0.5)) in [14] was determined as 0.452. “AAGACCAA (double strand) [8-mer AAGACCAA]”: the binding signal (PBM E-score (-0.5 to 0.5)) in data set [2] is 0.469; in [13], 0.473; in data set [3], 0.457.

Take “TGGCGCCA (double strand) [8-mer TGGCGCCA]”: the binding signal (PBM E-score (-0.5 to 0.5)) in data set [14] amounted to 0.474; in data set [17], 0.491; in data set [15] it was 0.492. For the sequence “TTACGAAA (double strand) [8-mer TTACGAAA]”, the results for the binding signal (PBM E-score (-0.5 to 0.5)) in data set [16] and in data set [18] were 0.464 and 0.463, respectively.
